Measured values as given in patent US20040191811A1, “Methods for measuring levels of uridine-diphosphate-N-acetylglucosamine and activity of inhibitors thereof” (priority 2002, published 2004).

Columns and labels:
Assay type in all cases: biochemical, human
Details in all cases: other: extracts from transfected SF9 insect cells, 60 minutes at 37° C.
[1] = substrate: NC(=O)CC[C@H](N)C(=O)O; assay: Substrate Km determination for GFAT-alpha (Lineweaver-Burk plot)
Protocol: (§1) FIG. 3 illustrates the effect of varying concentrations of the substrates glutamine and fructose 6-phosphate on the enzyme activity of GFAT-alpha and GFAT-beta. FIG. 3A is a graph illustrating incubation with 10 μl glutamine 200 mM+10 μl fructose 6-phosphate 3.125, 6.25, 12.5, 25, 50, 100, and 200 mM. FIG. 3B is a graph illustrating incubation with 10 μl fructose 6-phosphate 200 mM+10 μl glutamine 3.125, 6.25, 12.5, 25, 50, 100, and 200 mM. 10 μl of GFAT-alpha and 5 μl of GFAT-beta extracts from transfected SF9 insect cells are incubated with 1) 10 μl glutamine 200 mM+10 μl fructose 6-phosphate 3.125, 6.25, 12.5, 25, 50, 100, and 200 mM, and 2) 10 μl fructose 6-phosphate 200 mM+10 μl glutamine 3.125, 6.25, 12.5, 25, 50, 100, and 200 mM in an incubation media containing 10 μl PBS 10×, 10 μl EDTA 50 mM, 10 μl DTT 10 mM, and water to 100 μl. The plate is sealed with a Costar plate sealer and incubated for 60 minutes at 37° C. by floating on a water bath. Additional incubation mixture is kept on ice to add to standard and control samples. […] After a 20-minute incubation at 37° C., the OD is determined for each well at 585 nm.
(§2) FIG. 3C is a table illustrating the Km values of the substrates for the GFAT-alpha and GFAT-beta enzymes calculated from the data generated in FIGS. 3A and 3B. […]

[2] = substrate: O=C(CO)[C@@H](O)[C@H](O)[C@H](O)COP(=O)(O)O; assay: as above
Protocol: as §1, §2

[3] = substrate: NC(=O)CC[C@H](N)C(=O)O; assay: Substrate Km determination for GFAT-beta (Lineweaver-Burk plot)
Protocol: as §1, §2

[4] = substrate: O=C(CO)[C@@H](O)[C@H](O)[C@H](O)COP(=O)(O)O; assay: as above
Protocol: as §1, §2

Protein	Km [1]	Km [2]	Km [3]	Km [4]
GFAT-alpha (Homo sapiens) (protein, made in house; host or cells: SF9 insect cells (sonicated, centrifuged cell extract, not purified)) MCGIFAYLNYHVPRTRREILETLIKGLQRLEYRGYDSAGVGFDGGNDKDWEANACKIQLIKKKGKVKALDEEVHKQQDMDLDIEFDVHLGIAHTRWATHGEPSPVNSHPQRSDKNNEFIVIHNGIITNYKDLKKFLESKGYDFESETDTETIAKLVKYMYDNRESQDTSFTTLVERVIQQLEGAFALVFKSVHFPGQAVGTRRGSPLLIGVRSEHKLSTDHIPILYRTGKDKKGSCNLSRVDSTTCLFPVEEKAVEYYFASDASAVIEHTNRVIFLEDDDVAAVVDGRLSIHRIKRTAGDHPGRAVQTLQMELQQIMKGNFSSFMQKEIFEQPESVVNTMRGRVNFDDYTVNLGGLKDHIKEIQRCRRLILIACGTSYHAGVATRQVLEELTELPVMVELASDFLDRNTPVFRDDVCFFLSQSGETADTLMGLRYCKERGALTVGITNTVGSSISRETDCGVHINAGPEIGVASTKAYTSQFVSLVMFALMMCDDRISMQERRKEIMLGLKRLPDLIKEVLSMDDEIQKLATELYHQKSVLIMGRGYHYATCLEGALKIKEITYMHSEGILAGELKHGPLALVDKLMPVIMIIMRDHTYAKCQNALQQVVARQGRPVVICDKEDTETIKNTKRTIKVPHSVDCLQGILSVIPLQLLAFHLAVLRGYDVDFPRNLAKSVTVE	1490 µM	1850 µM		
GFAT-beta (Homo sapiens) (protein, made in house; host or cells: SF9 insect cells (sonicated, centrifuged cell extract, not purified)) MCGIFAYMNYRVPRTRKEIFETLIKGLQRLEYRGYDSAGVAIDGNNHEVKERHIQLVKKRGKVKALDEELYKQDSMDLKVEFETHFGIAHTRWATHGVPSAVNSHPQRSDKGNEFVVIHNGIITNYKDLRKFLESKGYEFESETDTETIAKLIKYVFDNRETEDITFSTLVERVIQQLEGAFALVFKSVHYPGEAVATRRGSPLLIGVRSKYKLSTEQIPILYRTCTLENVKNICKTRMKRLDSSACLHAVGDKAVEFFFASDASAIIEHTNRVIFLEDDDIAAVADGKLSIHRVKRSASDDPSRAIQTLQMELQQIMKGNFSAFMQKEIFEQPESVFNTMRGRVNFETNTVLLGGLKDHLKEIRRCRRLIVIGCGTSYHAAVATRQVLEELTELPVMVELASDFLDRNTPVFRDDVCFFISQSGETADTLLALRYCKDRGALTVGVTNTVGSSISRETDCGVHINAGPEIGVASTKAYTSQFISLVMFGLMMSEDRISLQNRRQEIIRGLRSLPELIKEVLSLEEKIHDLALELYTQRSLLVMGRGYNYATCLEGALKIKEITYMHSEGILAGELKHGPLALIDKQMPVIMVIMKDPCFAKCQNALQQVTARQGRPIILCSKDDTESSKFAYKTIELPHTVDCLQGILSVIPLQLLSFHLAVLRGYDVDFPRNLAKSVTVE			1990 µM	6800 µM
